The chains are these.
B1: GAGE1 (parent)
chain: RPRRYVQPPEMIGPMRPEQFSDEV
B2: WSB1 (parent)
chain: DLKDDGNMMKVLRGHQNWVYSCAF
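Note: lentivirally expressed fusions sorted by FACS into six bins by GFP to DsRed ratio, PSI derived from sequencing read proportions per bin multiplied by bin number.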

The variants in the first data set derive from B1. The data set can be described thus: protein stability index of a GFP-peptide fusion (GPS, HEK-293T) (PSI 1-6); higher = more stable. Particulars: c terminus: a fixed tail appended.
With RPRRYVQPPEMIGEMRPEQFSDEV [P14E], the protein stability index was 4.41.

As for RPRRYVQPPAMIGPMRPEQFSDEV [E10A], the protein stability index came to 4.15.

With RPRRYVQPPEMIGPMTPEQFSDEV [R16T], the protein stability index came to 3.8.

As to RPRRYVQPPEMIGPMRPEQFSDMV [E23M], the protein stability index stood at 2.85.

As to RPHRYVQPPEMIGPMRPEQFSDEV [R3H], the protein stability index is 3.83.

In the case of RPYRYVQPPEMIGPMRPEQFSDEV [R3Y], the protein stability index amounted to 3.1.

Take RPTRYVQPPEMIGPMRPEQFSDEV [R3T]: the protein stability index was 4.3.

Take RPRYYVQPPEMIGPMRPEQFSDEV [R4Y]: the protein stability index was determined as 3.79.

Take RPRPYVQPPEMIGPMRPEQFSDEV [R4P]: the protein stability index came to 4.11.

For the variant RPRRYVQPPEMIGPMRVEQFSDEV [P17V], the protein stability index was found to be 4.43.

For the variant RPRRYVQPPEMIGPMRPEQFIDEV [S21I], the protein stability index is 2.9.

Regarding RPRRYVQPPEMIGPMRPEQFVDEV [S21V], the protein stability index came to 3.64.

As to RPRRYVQPPEMIGPFRPEQFSDEV [M15F], the protein stability index was 3.89.

RPRRYVAPPEMIGPMRPEQFSDEV [Q7A]: the protein stability index was 3.77.

Consider RPRRYQQPPEMIGPMRPEQFSDEV [V6Q], for which the protein stability index is 3.59.

Regarding RPRRYVQPPEMIEPMRPEQFSDEV [G13E], the protein stability index is 3.95.

With RPRRYVQPPEMIPPMRPEQFSDEV [G13P], the protein stability index was found to be 4.68.

As for RPRRYVQPPEMIGPMRPEQFSDEG [V24G], the protein stability index amounted to 3.58.

RPRRYVQPPEMIGPMRPEQFSDEN [V24N]: the protein stability index was 4.2.

In the case of RPRRYVQPPEMIGPMRPEQFSPEV [D22P], the protein stability index was 3.95.

On to RPRRNVQPPEMIGPMRPEQFSDEV [Y5N], for which the protein stability index came out at 4.17.

Consider RHRRYVQPPEMIGPMRPEQFSDEV [P2H], for which the protein stability index turned out to be 3.61.

On to RDRRYVQPPEMIGPMRPEQFSDEV [P2D], for which the protein stability index was 3.98.

RPRRYVQPPEMIGPMRPEPFSDEV [Q19P]: the protein stability index was determined as 4.11.

On to PPRRYVQPPEMIGPMRPEQFSDEV [R1P], for which the protein stability index worked out at 3.8.

With RPRRYVQPPEMIGPMRPEQESDEV [F20E], the protein stability index came to 4.97.

Another data set covers variants of B2. The data set is described as above. Particulars: c terminus: a fixed tail appended.
Consider DLKDDGNMMKVLRYHQNWVYSCAF [G14Y], for which the protein stability index was 2.35.

Regarding DLKDDGNMMKVLRWHQNWVYSCAF [G14W], the protein stability index amounted to 1.87.

Regarding DLKDDGNMMKVLRGHHNWVYSCAF [Q16H], the protein stability index was 2.75.

Regarding DLKDDGNMMKVLRGHPNWVYSCAF [Q16P], the protein stability index was determined as 2.52.

With DLKDDGNMMKVLRGHFNWVYSCAF [Q16F], the protein stability index stood at 2.8.

As to DLKDDGNMMKVLRGHCNWVYSCAF [Q16C], the protein stability index was 2.3.

Take DLKDDGNMMKVLRGHANWVYSCAF [Q16A]: the protein stability index is 2.32.

On to DLKDDGNMMKVLRGHMNWVYSCAF [Q16M], for which the protein stability index was 2.04.

As for DLKDDGNMMKVLRGHSNWVYSCAF [Q16S], the protein stability index is 2.54.

For DLKDDGNMMKVLRGHDNWVYSCAF [Q16D], the protein stability index amounted to 1.71.

With DLKDDGNMMKVLRGHINWVYSCAF [Q16I], the protein stability index is 2.04.

On to DLKDDGNMMKVLRGHVNWVYSCAF [Q16V], for which the protein stability index is 1.52.

As to DLKDDGNMMKVLRGHTNWVYSCAF [Q16T], the protein stability index is 2.79.

Turning to DLKDDGNMMKVLRGHYNWVYSCAF [Q16Y], the protein stability index was found to be 1.4.

In the case of DLKDDGNMMKVLRGHKNWVYSCAF [Q16K], the protein stability index was 2.41.

For DLKDDGNMMKVLRGHLNWVYSCAF [Q16L], the protein stability index was 1.48.

Turning to DLKDDGNMMKVLRGHENWVYSCAF [Q16E], the protein stability index came to 2.36.

In the case of DLKDDGNMMKVLRGHNNWVYSCAF [Q16N], the protein stability index worked out at 1.79.

With DLKDDGNMMKVLRGHQNWVYSPAF [C22P], the protein stability index was found to be 2.01.

Turning to DLKDDGNMMKVLRGHQNWVYSAAF [C22A], the protein stability index amounted to 2.25.

For the variant DLKDDGNMMKVLRGHQNWVYSDAF [C22D], the protein stability index came out at 3.46.

As to DLKDDGNMMKVLRGHQNWVYSLAF [C22L], the protein stability index came to 3.06.

For the variant DLKDDGNMMKVLRGHQNWVYSYAF [C22Y], the protein stability index turned out to be 1.72.

As for DLKDDGNMMKVLRGHQNWVYSRAF [C22R], the protein stability index was 2.33.

Turning to DLKDDGNMMKVLRGHQNWVYSEAF [C22E], the protein stability index was found to be 2.39.

In the case of DLKDDGNMMKVLRGHQNWVYSQAF [C22Q], the protein stability index stood at 2.15.

Turning to DLKDDGNMMKVLRGHQNWVYSTAF [C22T], the protein stability index stood at 1.9.

For DLKDDGNMMKVLRGHQNWVYSKAF [C22K], the protein stability index worked out at 1.77.

DLKDDGNMMKVLRGHQNWVYSGAF [C22G]: the protein stability index is 1.69.

On to DLKDDGNMMKVLRGHQNWVYSHAF [C22H], for which the protein stability index stood at 1.33.

Consider DLKDDGNMMKVLRGHQNWVYSSAF [C22S], for which the protein stability index came to 1.61.

As for DLKDDGNMMKVLRGHQNWVYSMAF [C22M], the protein stability index amounted to 2.61.

As for DLKDDGNMMKVLRGHQNWVYSIAF [C22I], the protein stability index was determined as 2.86.

For the variant DLKDDGNMMKVLRGHQNWVYSNAF [C22N], the protein stability index was determined as 1.81.

For the variant DLKDDGNMMKVLRGHQNWVYSFAF [C22F], the protein stability index is 2.98.

As to DLKDDGNMMKVLRGHQNWVYSCLF [A23L], the protein stability index turned out to be 1.22.

Take DLKDDGNMMKVLRGHQNWVYSCHF [A23H]: the protein stability index was found to be 1.75.

For the variant DLKDDGNMMKVLRGHQNWVYSCIF [A23I], the protein stability index was 1.43.

With DLKDDGNMMKVLRGHQNWVYSCEF [A23E], the protein stability index came out at 2.24.

Consider DLKDDGNMMKVLRGHQNWVYSCYF [A23Y], for which the protein stability index worked out at 2.29.

With DLKDDGNMMKVLRGHQNWVYSCTF [A23T], the protein stability index came to 1.6.

DLKDDGNMMKVLRGHQNWVYSCCF [A23C]: the protein stability index stood at 2.5.

DLKDDGNMMKVLRGHQNWVYSCRF [A23R]: the protein stability index came to 2.36.

For the variant DLKDDGNMMKVLRGHQNWVYSCPF [A23P], the protein stability index was 2.5.

With DLKDDGNMMKVLRGHQNWVYSCSF [A23S], the protein stability index came to 2.94.

DLKDDGNMMKVLRGHQNWVYSCGF [A23G]: the protein stability index was found to be 1.73.

For the variant DLKDDGNMMKVLRGHQNWVYSCVF [A23V], the protein stability index is 1.71.

As to DLKDDGNMMKVLRGHQNWVYSCFF [A23F], the protein stability index amounted to 2.17.

DLKDDGNMMKVLRGHQNWVYSCNF [A23N]: the protein stability index was found to be 2.22.

In the case of DLKDDGNMMKVLRGHQNWVYSCKF [A23K], the protein stability index was 1.31.

Take DLKDDGNMMKVLRGHQNWVYSCMF [A23M]: the protein stability index came out at 1.44.

Consider DLKDDGNMMKVLRGHQNWVYECAF [S21E], for which the protein stability index was determined as 1.94.

For the variant DLKDDGNMMKVLRGHQNWVYPCAF [S21P], the protein stability index is 2.05.

On to DLKDDGNMMKVLRGHQNWVYRCAF [S21R], for which the protein stability index came out at 1.22.

Turning to DLKDDGNMMKVLRGHQNWVYYCAF [S21Y], the protein stability index was 3.37.

As to DLKDDGNMMKVLRGHQNWVYACAF [S21A], the protein stability index turned out to be 2.3.

On to DLKDDGNMMKVLRGHQNWVYTCAF [S21T], for which the protein stability index came out at 1.07.

On to DLKDDGNMMKVLRGHQNWVYHCAF [S21H], for which the protein stability index was 2.05.

As for DLKDDGNMMKVLRGHQNWVYGCAF [S21G], the protein stability index was found to be 2.27.

On to DLKDDGNMMKVLRGHQNWVYDCAF [S21D], for which the protein stability index turned out to be 2.05.

On to DLKDDGNMMKVLRGHQNWVYNCAF [S21N], for which the protein stability index amounted to 1.46.

Turning to DLKDDGNMMKVLRGHQNWVYKCAF [S21K], the protein stability index worked out at 1.07.

On to DLKDDGNMMKVLRGHQNTVYSCAF [W18T], for which the protein stability index was 2.08.

Consider DLKDDGNMMKVLRGHQNMVYSCAF [W18M], for which the protein stability index came out at 2.75.

DLKDDGNMMKVLRGHQNYVYSCAF [W18Y]: the protein stability index was found to be 2.09.

DLKDDGNMMKVLRGHQNVVYSCAF [W18V]: the protein stability index turned out to be 1.07.

For the variant DLKDDGNMMKVLRGHQNAVYSCAF [W18A], the protein stability index came to 2.49.

DLKDDGNMMKVLRGHQNRVYSCAF [W18R]: the protein stability index amounted to 1.65.

For the origin of these results see the supplement of paper PMC10567573.
